# Source: patent US20200315149
# T1: full-length coagulation factor XII purified from human plasma, P00748
# T1 chain: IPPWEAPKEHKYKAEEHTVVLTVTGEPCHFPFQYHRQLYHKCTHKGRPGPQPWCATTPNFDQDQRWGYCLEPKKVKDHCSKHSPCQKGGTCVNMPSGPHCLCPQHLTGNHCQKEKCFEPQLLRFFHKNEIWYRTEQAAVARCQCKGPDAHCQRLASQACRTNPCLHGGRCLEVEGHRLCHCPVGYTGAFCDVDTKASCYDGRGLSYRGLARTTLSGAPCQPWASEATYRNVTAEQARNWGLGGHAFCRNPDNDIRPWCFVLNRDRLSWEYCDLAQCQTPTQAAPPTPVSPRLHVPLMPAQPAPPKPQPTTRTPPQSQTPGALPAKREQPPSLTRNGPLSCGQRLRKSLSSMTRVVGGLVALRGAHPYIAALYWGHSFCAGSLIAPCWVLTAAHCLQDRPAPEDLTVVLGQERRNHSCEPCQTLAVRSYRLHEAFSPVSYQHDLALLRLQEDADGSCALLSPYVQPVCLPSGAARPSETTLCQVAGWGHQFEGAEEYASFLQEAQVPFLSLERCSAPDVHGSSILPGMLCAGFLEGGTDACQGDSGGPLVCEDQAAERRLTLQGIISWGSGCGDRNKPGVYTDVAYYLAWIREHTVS
# B1: recombinant human hepatocyte growth factor activator (protein)
# chain: QPGGNRTESPEPNATATPAIPTILVTSVTSETPATSAPEAEGPQSGGLPPPPRAVPSSSSPQAQALTEDGRPCRFPFRYGGRMLHACTSEGSAHRKWCATTHNYDRDRAWGYCVEATPPPGGPAALDPCASGPCLNGGSCSNTQDPQSYHCSCPRAFTGKDCGTEKCFDETRYEYLEGGDRWARVRQGHVEQCECFGGRTWCEGTRHTACLSSPCLNGGTCHLIVATGTTVCACPPGFAGRLCNIEPDERCFLGNGTGYRGVASTSASGLSCLAWNSDLLYQELHVDSVGAAALLGLGPHAYCRNPDNDERPWCYVVKDSALSWEYCRLEACESLTRVQLSPDLLATLPEPASPGRQACGRRHKKRTFLRPRIIGGSSSLPGSHPWLAAIYIGDSFCAGSLVHTCWVVSAAHCFSHSPPRDSVSVVLGQHFFNRTTDVTQTFGIEKYIPYTLYSVFNPSDHDLVLIRLKKKGDRCATRSQFVQPICLPEPGSTFPAGHKCQIAGWGHLDENVSGYSSSLREALVPLVADHKCSSPEVYGADISPNMLCAGYFDCKSDACQGDSGGPLACEKNGVAYLYGIISWGDGCGRLHKPGVYTRVANYVDWINDRIRPPRRLVAPS
# B2: kallikrein-activated FXII297-596 (protein)
# chain: MPAQPAPPKPQPTTRTPPQSQTPGALPAKREQPPSLTRNGPLSCGQRLRKSLSSMTRVVGGLVALRGAHPYIAALYWGHSFCAGSLIAPCWVLTAAHCLQDRPAPEDLTVVLGQERRNHSCEPCQTLAVRSYRLHEAFSPVSYQHDLALLRLQEDADGSCALLSPYVQPVCLPSGAARPSETTLCQVAGWGHQFEGAEEYASFLQEAQVPFLSLERCSAPDVHGSSILPGMLCAGFLEGGTDACQGDSGGPLVCEDQAAERRLTLQGIISWGSGCGDRNKPGVYTDVAYYLAWIREHTVS
# B3: recombinant human FXII297-596 (protein)
# chain: B2 chain
# B4: kallikrein-activated FXII (protein)
# chain: T1 chain
# B5: cathepsin K (protein)
# chain: APDSVDYRKKGYVTPVKNQGQCGSCWAFSSVGALEGQLKKKTGKLLNLSPQNLVDCVSENDGCGGGYMTNAFQYVQKNRGIDSEDAYPYVGQEESCMYNPTGKAAKCRGYREIPEGNEKALKRAVARVGPVSVAIDASLTSFQFYSKGVYYDESCNSDNLNHAVLAVGYGIQKGNKHWIIKNSWGENWGNKGYILMARNKNNACGIANLASFPKM
# B6: two-chain tissue plasminogen activator (protein)
# chain: SYQVICRDEKTQMIYQQHQSWLRPVLRSNRVEYCWCNSGRAQCHSVPVKSCSEPRCFNGGTCQQALYFSDFVCQCPEGFAGKCCEIDTRATCYEDQGISYRGTWSTAESGAECTNWNSSALAQKPYSGRRPDAIRLGLGNHNYCRNPDRDSKPWCYVFKAGKYSSEFCSTPACSEGNSDCYFGNGSAYRGTHSLTESGASCLPWNSMILIGKVYTAQNPSAQALGLGKHNYCRNPDGDAKPWCHVLKNRRLTWEYCDVPSCSTCGLRQYSQPQFRIKGGLFADIASHPWQAAIFAKHRRSPGERFLCGGILISSCWILSAAHCFQERFPPHHLTVILGRTYRVVPGEEEQKFEVEKYIVHKEFDDDTYDNDIALLQLKSDSSRCAQESSVVRTVCLPPADLQLPDWTECELSGYGKHEALSPFYSERLKEAHVRLYPSSRCTSQHLLNRTVTDNMLCAGDTRSGGPQANLHDACQGDSGGPLVCLNDGRMTLVGIISWGLGCGQKDVPGVYTKVTNYLDWIRDNMRP
# B7: βFXIIa (protein)
# chain: NGPLSCGQRLRKSLSSMTRVVGGLVALRGAHPYIAALYWGHSFCAGSLIAPCWVLTAAHCLQDRPAPEDLTVVLGQERRNHSCEPCQTLAVRSYRLHEAFSPVSYQHDLALLRLQEDADGSCALLSPYVQPVCLPSGAARPSETTLCQVAGWGHQFEGAEEYASFLQEAQVPFLSLERCSAPDVHGSSILPGMLCAGFLEGGTDACQGDSGGPLVCEDQAAERRLTLQGIISWGSGCGDRNKPGVYTDVAYYLAWIREHTVS
# Experiments:
# [1] = biological target: recombinant human pro-HGF, P14210
# [2] = biological target: prekallikrein purified from human plasma, P03952
# [3] = biological target: T1, full-length coagulation factor XII …
# recombinant human pro-HGF, P14210, sequence (P14210 32-728): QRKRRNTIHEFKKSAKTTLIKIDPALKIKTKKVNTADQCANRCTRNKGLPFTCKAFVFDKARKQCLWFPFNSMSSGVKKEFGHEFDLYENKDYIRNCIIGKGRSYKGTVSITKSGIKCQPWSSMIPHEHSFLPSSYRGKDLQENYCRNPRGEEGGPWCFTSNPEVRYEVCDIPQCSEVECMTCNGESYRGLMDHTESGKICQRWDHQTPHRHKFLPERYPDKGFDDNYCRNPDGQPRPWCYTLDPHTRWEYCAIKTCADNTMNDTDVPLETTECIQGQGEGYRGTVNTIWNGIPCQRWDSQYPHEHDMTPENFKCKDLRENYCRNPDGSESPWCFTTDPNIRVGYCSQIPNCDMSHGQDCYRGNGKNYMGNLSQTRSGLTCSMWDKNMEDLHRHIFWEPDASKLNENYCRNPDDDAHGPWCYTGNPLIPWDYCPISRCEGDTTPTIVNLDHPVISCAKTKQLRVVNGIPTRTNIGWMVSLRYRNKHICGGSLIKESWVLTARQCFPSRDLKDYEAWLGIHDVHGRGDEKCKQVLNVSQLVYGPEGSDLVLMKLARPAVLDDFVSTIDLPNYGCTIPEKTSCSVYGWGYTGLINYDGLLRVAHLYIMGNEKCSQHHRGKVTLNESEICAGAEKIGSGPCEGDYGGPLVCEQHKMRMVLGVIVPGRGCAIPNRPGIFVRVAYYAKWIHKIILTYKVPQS
# prekallikrein purified from human plasma, P03952, sequence (P03952 20-638): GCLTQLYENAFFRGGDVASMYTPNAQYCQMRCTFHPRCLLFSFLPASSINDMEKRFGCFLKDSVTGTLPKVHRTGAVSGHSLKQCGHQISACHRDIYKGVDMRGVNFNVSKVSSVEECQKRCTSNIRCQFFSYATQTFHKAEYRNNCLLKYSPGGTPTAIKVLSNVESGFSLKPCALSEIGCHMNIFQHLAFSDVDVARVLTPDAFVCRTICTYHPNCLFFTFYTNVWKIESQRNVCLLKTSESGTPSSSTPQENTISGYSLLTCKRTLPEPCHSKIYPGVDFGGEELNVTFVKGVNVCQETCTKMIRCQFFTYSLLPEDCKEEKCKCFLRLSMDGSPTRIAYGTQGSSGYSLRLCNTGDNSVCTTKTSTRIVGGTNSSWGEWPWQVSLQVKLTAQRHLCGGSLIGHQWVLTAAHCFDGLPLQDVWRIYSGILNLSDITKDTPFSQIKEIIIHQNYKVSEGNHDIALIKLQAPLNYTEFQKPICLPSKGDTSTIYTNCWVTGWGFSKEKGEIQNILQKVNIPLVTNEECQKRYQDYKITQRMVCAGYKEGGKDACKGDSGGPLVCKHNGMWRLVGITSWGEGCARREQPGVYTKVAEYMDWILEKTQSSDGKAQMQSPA
protein,measurement,setting,value
B1,"cleavage of pro-HGF, western blot",[1],We confirmed the ability of hepatocyte growth factor activator (HGFA) and βFXIIa to cleave pro-HGF
B2,"cleavage of pro-HGF (25 ug/mL) by activated FXII297-596 (225 nM), western blot with anti-HGF",[1],kallikrein-activated FXII297-596 cleaved pro-HGF to the active two-chain form
same,"cleavage of prekallikrein (200 nM) by activated FXII297-596 (225 nM), western blot for kallikrein heavy chain",[2],activated FXII297-596 converted prekallikrein to kallikrein as seen through the generation of kallikrein heavy chain
B3,"cleavage of prekallikrein, western blot",[2],no cleavage of prekallikrein was observed with non-activated FXII297-596
B4,"cleavage of pro-HGF (25 ug/mL) by kallikrein-activated FXII (50 nM), western blot",[1],"Pro-HGF was cleaved by kallikrein-activated FXII297-596 and kallikrein-activated FXII (arrows), but not by inactivated kallikrein alone"
B5,"cleavage of FXII (1.25 uM) by cathepsin K (100 nM), non-reducing SDS-PAGE with Coomassie staining",[3],incubation of full-length FXII with cathepsin K generated stable FXII fragments with sizes supporting cleavage between L296 and M297
B6,"cleavage of pro-HGF, western blot",[1],other serine proteases found in the brain such as thrombin and tissue plasminogen activator did not convert pro-HGF to HGF
B7,"cleavage of pro-HGF, western blot",[1],We confirmed the ability of hepatocyte growth factor activator (HGFA) and βFXIIa to cleave pro-HGF
